According to US11028174 (LEPU BIOPHARMA, dated 2021):

B1: 47C6A3 chimeric mAb (antibody, V domains shown)
VH: DVQLQESGPGLVKPSQSLSLTCTVTGYSITSDYAWNWIRQFPGNKLEWMGYIIYSGSTSYNPSLKSRISITRDTSKNQFFLQLNSVTTEDTATYYCARSTMIATNWFAYWGQGTLVTVSA
VL: DIVMTQSHKFMSTSVVDRVSITCKASQDVSLAVAWYQQKPGQSPKLLIYWASTRHTGVPDRFTGSGSGTDFALTISSVQAEDLALYYCQQHYITPWTFGGGTKLEIK
notes: also called 47C6A3-chimera
B2: 67F3G7 chimeric mAb (antibody, V domains shown)
VH: QVKLLQSGAALVKPGASVKMSCKASGYIFTDFWVSWVKQSHEKSLEWIGEIYPNSGVSRYNEKFKGRATMTVDKSTSTAYLELSRLTSEDSAIYYCTKYFGYTYWFGYWGQGTLVTVSS
VL: DTVLTQSPALAVSLGQRITISCRASKSVSTYMHWYQQRSGLQPKLLIYSASHLESGVPSRFSGSGSGTDFTLTIDPVEADDIANYYCQQSNELPVTFGSGTKLEIK
notes: also called 67F3G7-chimera
B3: 89C10H8 chimeric mAb (antibody, V domains shown)
VH: EVQLVESGGGLVQPGRSLTLSCVASGFTFSNYWMTWIRQAPGKGLEWVASITNTGSSTFYPDSVKGRFTISRDNTRSTLFLQINSLRSEDTATYYCTRDTTIAPFDYWGQGVMVTVSS
VL: DIQMTQSPSFLSASVGDRVTITCKASQNLNEYLNWYQQKLGEAPKRLIYKTNTLQAGIPSRFSGSGSGIDYTLTISSLQPEDVATYFCSQYNSGNTFGAGTKLELK
notes: also called 89C10H8-chimera

Assays:
[1] = biological target: recombinant human TGF-β (human) (UniProt P01137); test: cell-based or functional assay
[2] = biological target: PD-L1 on PD-L1 target cells (Homo sapiens (Human)) (UniProt Q9NZQ7); test: cell-based or functional assay
mouse PD-L1 protein = mouse PD-L1 protein (mouse, UniProt Q9EP73 19-239, limits assumed); test: ELISA, coated mouse PD-L1
Procedure: (§1) ELISA testing was carried out to evaluate the binding of chimeric antibodies to human PD-L1, mouse PD-L1, rat PD-L1, and cynomolgus PD-L1, respectively.
(§2) Briefly, microtiter plates were coated with human, mouse, rat and cynomolgus PD-L1 proteins at 0.5 µg/ml in PBS, 100 µl/well at 4° C. overnight, then blocked with 150 µl/well of 1% BSA. Three-fold dilutions of chimeric antibodies starting from 10 µg/ml were added to each well and incubated for 1 hour at 37° C. The plates were washed with PBS/Tween and then incubate with mouse-anti-human IgG Fab antibody conjugated with Horse Radish Peroxidase (HRP) for 30 mins at 37° C. After washing, the plates were developed with TMB substrate and analyzed by spectrophotometer at OD 450 nm.

rat PD-L1 protein = rat PD-L1 protein (rat, UniProt D4AE25 19-239); test: ELISA, coated rat PD-L1
Procedure: as §1, §2

Sequence of rat PD-L1 protein (D4AE25 entry or part of it limits assumed): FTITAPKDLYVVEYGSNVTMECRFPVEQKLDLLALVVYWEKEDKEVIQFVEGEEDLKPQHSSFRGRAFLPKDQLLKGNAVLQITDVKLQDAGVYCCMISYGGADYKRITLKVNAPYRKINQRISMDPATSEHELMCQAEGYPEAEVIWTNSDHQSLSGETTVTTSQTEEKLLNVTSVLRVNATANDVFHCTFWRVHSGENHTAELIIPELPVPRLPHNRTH
Sequence of mouse PD-L1 protein (Q9EP73 19-239 limits assumed): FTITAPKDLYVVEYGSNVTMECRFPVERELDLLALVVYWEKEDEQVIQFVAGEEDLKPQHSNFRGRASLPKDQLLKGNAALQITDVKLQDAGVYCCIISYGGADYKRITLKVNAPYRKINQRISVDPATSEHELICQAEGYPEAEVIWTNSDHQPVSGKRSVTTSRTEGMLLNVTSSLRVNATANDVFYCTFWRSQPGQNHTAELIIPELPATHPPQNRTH
Sequence of recombinant human TGF-β (human) (P01137 279-390 limits assumed): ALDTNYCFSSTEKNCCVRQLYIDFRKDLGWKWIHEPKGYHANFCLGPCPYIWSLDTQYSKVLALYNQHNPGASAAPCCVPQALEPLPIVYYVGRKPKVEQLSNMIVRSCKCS
Sequence of PD-L1 on PD-L1 target cells (Homo sapiens (Human)) (Q9NZQ7 19-290 limits assumed): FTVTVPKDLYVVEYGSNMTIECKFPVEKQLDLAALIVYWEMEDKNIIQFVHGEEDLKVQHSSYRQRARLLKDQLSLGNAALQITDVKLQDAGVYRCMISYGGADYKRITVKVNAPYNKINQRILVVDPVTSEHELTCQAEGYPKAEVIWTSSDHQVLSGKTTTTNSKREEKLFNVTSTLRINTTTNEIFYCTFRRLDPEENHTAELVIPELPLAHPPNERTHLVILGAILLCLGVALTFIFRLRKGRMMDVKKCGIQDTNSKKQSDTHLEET

Row | Molecule | TGF-β SMAD luciferase reporter assay in transfected 293 cells [1] [nM] | NFAT-RE-mediated luminescence, PD1 effector cells co-cultured with PD-L1 target cells [2] [nM] | binding result (mouse PD-L1 protein) | binding result (rat PD-L1 protein)
1 | M7824 (bintrafusp alfa) | 0.0669 | 0.85 | – | –
2 | B1 | – | – | no binding (tested: starting from 10 µg/ml) | no binding (tested: starting from 10 µg/ml)
3 | B2 | – | – | no binding (tested: starting from 10 µg/ml) | no binding (tested: starting from 10 µg/ml)
4 | B3 | – | – | no binding (tested: starting from 10 µg/ml) | no binding (tested: starting from 10 µg/ml)
